According to patent US20250108122A1 (SHANGHAI MABGEN BIOTECH, published 2025):

T1: human CD79b protein on DoHH2 and WSU-DLCL2 cells (human, UniProt P40259 29-229)
T1 sequence (looked up): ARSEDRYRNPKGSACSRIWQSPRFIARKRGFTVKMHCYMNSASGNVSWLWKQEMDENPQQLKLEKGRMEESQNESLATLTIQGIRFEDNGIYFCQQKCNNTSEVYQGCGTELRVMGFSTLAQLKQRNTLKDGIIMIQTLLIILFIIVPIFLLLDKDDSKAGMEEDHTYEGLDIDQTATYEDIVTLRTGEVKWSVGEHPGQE

T2: human CD79b protein (human, UniProt P40259 29-159, limits assumed)
T2 construct: Recombinant protein used in the Biacore assay
T2 sequence (looked up): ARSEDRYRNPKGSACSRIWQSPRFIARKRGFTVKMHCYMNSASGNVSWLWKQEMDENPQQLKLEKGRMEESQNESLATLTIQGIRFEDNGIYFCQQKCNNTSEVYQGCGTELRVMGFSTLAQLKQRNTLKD

B1: ADC-6 (hAb015-10-cys-D, with a DAR value of about 4) (antibody, human IgG1, kappa, V domains shown)
VH: EVQLVQSGAEVKKPGSSVKVSCKASGSSFSSYGINWVKQAPGQGLEWIGEIFPRSGNTYYNEKFEGRATLTADKSTSTAYMELRSLRSEDTAVYYCAKGDLGDFDYWGQGTTVTVSS
VL: DFVMTQTPLSLPVTPGEPASISCRSSQSIVHSDGNTYFEWYLQKPGQSPKLLIYKVSNRFSGVPDRFSGSGSGTDFTLKISRVEAEDVGVYYCFQGSHVPWTFGGGTKVEIKR
modifications: compound D (exatecan derivative linker-drug, Topo I inhibitor) coupled to cysteines after TCEP reduction; positions not given; mean n=3.46 per antibody (RP-HPLC)
B2: ADC-5 (HAB015-10-cys-D, with a DAR value of about 2) (antibody, human IgG1, kappa, V domains shown)
VH: B1 VH
VL: B1 VL
modifications: compound D (exatecan derivative linker-drug, Topo I inhibitor) coupled to cysteines after TCEP reduction; positions not given; mean n=1.81 per antibody (RP-HPLC)
notes: Antibody-drug conjugate of hAb015-10 with compound D
B3: ADC-3 (hAb015-10-cys-MC-vc-PAB-MMAE) (antibody, human IgG1, kappa, V domains shown)
VH: B1 VH
VL: B1 VL
modifications: MC-vc-PAB-MMAE coupled to cysteines after TCEP reduction; positions not given; mean n=3.09 per antibody (CE-SDS)
B4: ADC-7 (hAb015-10-cys-D, with a DAR value of about 6) (antibody, human IgG1, kappa, V domains shown)
VH: B1 VH
VL: B1 VL
modifications: compound D (exatecan derivative linker-drug, Topo I inhibitor) coupled to cysteines after TCEP reduction; positions not given; mean n=5.84 per antibody (RP-HPLC)
B5: ADC-8 (SN8-cys-MC-PAB-MMAE, with a DAR value of about 4) (antibody, human IgG1, kappa, V domains shown)
VH: EVQLVESGGGLVQPGGSLRLSCAASGYTFSSYWIEWVRQAPGKGLEWIGEILPGGGDTNYNEIFKGRATFSADTSKNTAYLQMNSLRAEDTAVYYCTRRVPIRLDYWGQGTLVTVSS
VL: DIQLTQSPSSLSASVGDRVTITCKASQSVDYEGDSFLNWYQQKPGKAPKLLIYAASNLESGVPSRFSGSGSGTDFTLTISSLQPEDFATYYCQQSNEDPLTFGQGTKVEIKR
modifications: MC-VC-PAB-MMAE coupled to cysteines after TCEP reduction; positions not given; mean n=3.59 per antibody (CE-SDS)
B6: hAb015-10 (antibody, human IgG1, kappa, V domains shown)
VH: B1 VH
VL: B1 VL
notes: Humanized form of the mouse hybridoma antibody mAb015; also called humanized anti-CD79b antibody hAb015-10; naked antibody

These binders were tested against T1, human CD79b protein on DoHH2 and … (assay: cell-based or functional assay).

IC50 of in vitro proliferation inhibition (MTT, 72 h), DoHH2 cells [ng/mL] | IC50 of in vitro proliferation inhibition (MTT, 72 h), WSU-DLCL2 cells [ng/mL] | Binder
3.3 | 54.2 | B1
8.5 | 68.3 | B2
3.3 | 5.9 | B3
2 | 53.4 | B4
80.6 | 117 | B5

The binders below were run against T2, human CD79b protein (assay: Biacore affinity assay, 1:1 Langmuir fit; column head prints EC50 (nM)).
Method: Data fitting was performed with a (1:1) Langmuir model using BIAevaluation version 4.1, GE software to obtain affinity values.

KD (binding affinity) [nM] | Binder
0.38 | B6
